Experimental data as given in patent US10500249B2, “Compositions and methods for preventing or treating diseases, conditions, or processes characterized by aberrant fibroblast proliferation and extracellular matrix deposition” (MOERAE MATRIX, INC., priority 2014, dated 2019).

Key:
Experiment in all cases: Kinase Profiling Assay
Type in all cases: biochemical
Settings in all cases: 100 μM
CHK1 (h) = target: T1, CHK1 (h) (Homo sapiens, UniProt O14757)
T1 construct: purchased Millipore
T1 sequence (O14757 1-476): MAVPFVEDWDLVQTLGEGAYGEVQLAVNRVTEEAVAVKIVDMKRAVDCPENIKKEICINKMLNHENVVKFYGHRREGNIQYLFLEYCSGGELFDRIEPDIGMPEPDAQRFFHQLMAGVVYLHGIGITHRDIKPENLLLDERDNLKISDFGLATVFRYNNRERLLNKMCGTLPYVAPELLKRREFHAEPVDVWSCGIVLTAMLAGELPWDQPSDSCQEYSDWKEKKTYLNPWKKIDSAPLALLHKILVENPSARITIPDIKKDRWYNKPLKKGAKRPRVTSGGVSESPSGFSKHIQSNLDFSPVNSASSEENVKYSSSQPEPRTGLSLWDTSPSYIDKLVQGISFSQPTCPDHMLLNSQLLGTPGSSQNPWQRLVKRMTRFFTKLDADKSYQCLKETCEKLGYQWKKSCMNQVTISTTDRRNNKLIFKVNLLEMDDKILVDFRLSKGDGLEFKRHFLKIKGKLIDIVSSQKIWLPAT
Procedure, shortened: (§1)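 Duplicate wells; [radiolabeled] ATP phosphate onto cationic substrate; filter capture (negatively charged membrane); scintillation count; % of 100% activity control. Selectivity screen of MK2 peptide inhibitors, 266 human kinases.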

EphA8 (h) = target: T2, EphA8 (h) (Homo sapiens, UniProt P29322)
T2 sequence (P29322 28-1005): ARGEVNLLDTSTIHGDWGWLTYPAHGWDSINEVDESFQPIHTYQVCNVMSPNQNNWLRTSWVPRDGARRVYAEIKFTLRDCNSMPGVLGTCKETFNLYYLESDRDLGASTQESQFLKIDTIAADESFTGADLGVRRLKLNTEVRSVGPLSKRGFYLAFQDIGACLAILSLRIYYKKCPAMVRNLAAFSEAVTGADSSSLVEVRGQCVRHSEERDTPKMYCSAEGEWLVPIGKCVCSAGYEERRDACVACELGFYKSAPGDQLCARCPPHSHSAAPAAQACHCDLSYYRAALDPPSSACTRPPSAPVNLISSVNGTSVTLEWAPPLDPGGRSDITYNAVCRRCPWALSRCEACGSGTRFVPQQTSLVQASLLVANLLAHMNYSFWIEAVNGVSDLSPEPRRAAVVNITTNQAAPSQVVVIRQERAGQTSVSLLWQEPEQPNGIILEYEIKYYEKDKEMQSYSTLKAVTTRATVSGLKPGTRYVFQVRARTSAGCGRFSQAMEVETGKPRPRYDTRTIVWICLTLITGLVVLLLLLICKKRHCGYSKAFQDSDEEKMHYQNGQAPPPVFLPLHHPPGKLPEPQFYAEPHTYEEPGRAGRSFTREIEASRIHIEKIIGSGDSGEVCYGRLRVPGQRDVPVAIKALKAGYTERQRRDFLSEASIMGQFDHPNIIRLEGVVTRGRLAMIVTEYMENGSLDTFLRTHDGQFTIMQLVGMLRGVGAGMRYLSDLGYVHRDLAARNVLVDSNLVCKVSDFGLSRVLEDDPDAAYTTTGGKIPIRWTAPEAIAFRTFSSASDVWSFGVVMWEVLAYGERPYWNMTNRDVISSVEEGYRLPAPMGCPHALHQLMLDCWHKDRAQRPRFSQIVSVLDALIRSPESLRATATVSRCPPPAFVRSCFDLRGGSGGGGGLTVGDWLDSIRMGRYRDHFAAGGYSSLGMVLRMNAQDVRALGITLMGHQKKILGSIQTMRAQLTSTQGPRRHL
Procedure, shortened: as §1

CHK2 (h) = target: T3, CHK2 (h) (Homo sapiens, UniProt O96017)
T3 construct: purchased Millipore
T3 sequence (O96017 whole entry): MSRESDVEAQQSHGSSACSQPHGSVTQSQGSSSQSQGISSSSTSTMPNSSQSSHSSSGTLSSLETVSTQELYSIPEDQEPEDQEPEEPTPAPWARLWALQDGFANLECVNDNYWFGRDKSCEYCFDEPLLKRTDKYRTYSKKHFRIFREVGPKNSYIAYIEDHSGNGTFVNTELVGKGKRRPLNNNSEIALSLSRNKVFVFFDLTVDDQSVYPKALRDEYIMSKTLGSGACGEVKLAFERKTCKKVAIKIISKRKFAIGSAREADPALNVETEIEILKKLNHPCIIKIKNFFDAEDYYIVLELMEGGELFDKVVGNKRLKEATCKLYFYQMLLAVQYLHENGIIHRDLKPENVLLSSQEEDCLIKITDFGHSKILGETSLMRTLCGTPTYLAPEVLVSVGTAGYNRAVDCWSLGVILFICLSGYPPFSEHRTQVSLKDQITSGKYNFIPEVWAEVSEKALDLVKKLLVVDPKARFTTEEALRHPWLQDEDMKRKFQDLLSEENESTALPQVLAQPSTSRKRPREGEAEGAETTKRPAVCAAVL
Procedure, shortened: as §1

SGK3 (h) = target: T4, SGK3 (h) (Homo sapiens, UniProt Q96BR1)
T4 sequence (Q96BR1 1-496): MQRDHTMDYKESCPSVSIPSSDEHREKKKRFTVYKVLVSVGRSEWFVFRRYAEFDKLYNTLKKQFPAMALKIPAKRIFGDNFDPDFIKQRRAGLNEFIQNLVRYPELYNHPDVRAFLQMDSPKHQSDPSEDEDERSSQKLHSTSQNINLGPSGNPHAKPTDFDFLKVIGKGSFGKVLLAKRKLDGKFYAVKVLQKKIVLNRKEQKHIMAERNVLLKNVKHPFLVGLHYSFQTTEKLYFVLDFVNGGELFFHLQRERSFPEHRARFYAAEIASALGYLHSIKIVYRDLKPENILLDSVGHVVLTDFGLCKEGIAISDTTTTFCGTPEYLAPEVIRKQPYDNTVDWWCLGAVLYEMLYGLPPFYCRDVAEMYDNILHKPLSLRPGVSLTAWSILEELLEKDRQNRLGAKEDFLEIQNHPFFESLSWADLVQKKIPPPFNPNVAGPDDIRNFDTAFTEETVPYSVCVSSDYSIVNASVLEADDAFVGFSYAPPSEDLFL
Procedure, shortened: as §1

DYRK2 (h) = target: T5, DYRK2 (h) (Homo sapiens, UniProt Q92630)
T5 construct: purchased Millipore
T5 sequence (Q92630 1-601): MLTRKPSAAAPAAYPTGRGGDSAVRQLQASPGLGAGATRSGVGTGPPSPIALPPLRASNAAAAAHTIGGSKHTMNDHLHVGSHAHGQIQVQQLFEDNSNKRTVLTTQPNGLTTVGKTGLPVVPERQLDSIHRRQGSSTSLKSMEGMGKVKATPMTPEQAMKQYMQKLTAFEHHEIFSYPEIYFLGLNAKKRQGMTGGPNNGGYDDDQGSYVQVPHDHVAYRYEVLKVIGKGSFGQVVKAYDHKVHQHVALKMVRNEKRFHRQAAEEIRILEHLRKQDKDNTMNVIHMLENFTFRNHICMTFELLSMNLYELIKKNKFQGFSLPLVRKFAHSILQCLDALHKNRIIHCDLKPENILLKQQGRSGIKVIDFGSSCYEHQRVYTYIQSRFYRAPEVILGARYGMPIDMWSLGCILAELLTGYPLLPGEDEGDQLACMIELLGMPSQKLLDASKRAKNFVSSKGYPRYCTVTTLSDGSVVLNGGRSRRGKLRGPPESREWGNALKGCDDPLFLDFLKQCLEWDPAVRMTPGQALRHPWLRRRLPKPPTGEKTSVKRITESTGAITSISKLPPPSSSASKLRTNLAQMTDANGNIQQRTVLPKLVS
Procedure, shortened: as §1

FGFR1 (h) = FGFR1 (h) (Homo sapiens, UniProt P11362)
FGFR1 (h), sequence (P11362 22-822): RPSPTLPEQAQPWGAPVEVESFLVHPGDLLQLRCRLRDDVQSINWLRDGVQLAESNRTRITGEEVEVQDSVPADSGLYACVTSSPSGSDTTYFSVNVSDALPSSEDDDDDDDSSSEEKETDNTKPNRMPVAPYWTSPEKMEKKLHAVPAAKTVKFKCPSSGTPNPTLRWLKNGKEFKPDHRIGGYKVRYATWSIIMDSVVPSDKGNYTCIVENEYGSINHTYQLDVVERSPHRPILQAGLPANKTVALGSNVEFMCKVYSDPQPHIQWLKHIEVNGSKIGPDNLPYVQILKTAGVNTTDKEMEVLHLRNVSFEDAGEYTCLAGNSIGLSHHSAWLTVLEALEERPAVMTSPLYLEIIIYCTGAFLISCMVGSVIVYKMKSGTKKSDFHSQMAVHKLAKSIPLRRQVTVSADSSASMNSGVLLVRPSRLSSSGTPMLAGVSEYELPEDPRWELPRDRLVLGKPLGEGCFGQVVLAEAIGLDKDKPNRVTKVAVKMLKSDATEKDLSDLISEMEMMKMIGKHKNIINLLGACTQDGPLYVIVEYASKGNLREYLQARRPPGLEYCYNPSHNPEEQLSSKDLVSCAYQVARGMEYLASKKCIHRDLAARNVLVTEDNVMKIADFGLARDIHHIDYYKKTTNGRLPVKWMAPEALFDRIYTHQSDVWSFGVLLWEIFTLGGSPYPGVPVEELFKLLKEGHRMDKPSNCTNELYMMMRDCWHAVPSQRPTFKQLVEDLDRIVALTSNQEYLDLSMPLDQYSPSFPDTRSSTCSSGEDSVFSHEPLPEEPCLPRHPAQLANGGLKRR
Procedure, shortened: as §1

Row | Sequence | % activity (CHK1 (h)) [%] | % activity (EphA8 (h)) [%] | % activity (CHK2 (h)) [%] | % activity (SGK3 (h)) [%] | % activity (DYRK2 (h)) [%] | % activity (FGFR1 (h)) [%]
1 | FAKLAARLYRKALARQLGVAA [MMI-0300] | 91 | 93 | 66 | 10 | 155 | 55
2 | HRRIKAWLKKIKALARQLGVAA (Mammalian) [MMI-0500] | 65 | 337 | 13 | −3 | 127 | 18
3 | KAFAKLAARLYRKALARQLGVAA [MMI-0400] | 87 | 146 | 54 | 8 | 195 | 59
4 | YARAAARQARAKALNRQLGVA (Mammalian) [MMI-0200] |  | 133 |  | 58 | 142 | 97
